{"source": "patent US20160168268A1", "about": "(University of California, published 2016)", "binders": {"B1": {"name": "monoclonal anti-human IgE antibody P6.2 (antibody, V domains shown)", "VH": "QVQLQQSGAELVRPGTSVKVSCKASGYAFTNYLIEWVKQRPGQGLEWIGVINPGSGFTKYNEKFKGKATLTADKSSSTAYMHLSSLTSDDSAVYFCAREDVYSWFAYWGQGTLVTVSA", "VL": "DIVLTQSPASLAVSLGQRATISCRASESVDSYGNSFMHWYQQKPGQPPKLLIYRTSNLESGIPARFSGSGSRTDFTLTINPVEADDVATYFCQQSYEDPFTFGSGTKLEIK", "notes": "also called mAb P6.2; mAb 6.2"}}, "molecular_target": "T1, human IgE (human, UniProt P01854-1 1-428, FITC label in the BMMC experiments)", "T1 construct": "also called standard IgE; myeloma IgE", "T1 sequence (P01854 other isoform, or with tags, fused parts or gaps)": "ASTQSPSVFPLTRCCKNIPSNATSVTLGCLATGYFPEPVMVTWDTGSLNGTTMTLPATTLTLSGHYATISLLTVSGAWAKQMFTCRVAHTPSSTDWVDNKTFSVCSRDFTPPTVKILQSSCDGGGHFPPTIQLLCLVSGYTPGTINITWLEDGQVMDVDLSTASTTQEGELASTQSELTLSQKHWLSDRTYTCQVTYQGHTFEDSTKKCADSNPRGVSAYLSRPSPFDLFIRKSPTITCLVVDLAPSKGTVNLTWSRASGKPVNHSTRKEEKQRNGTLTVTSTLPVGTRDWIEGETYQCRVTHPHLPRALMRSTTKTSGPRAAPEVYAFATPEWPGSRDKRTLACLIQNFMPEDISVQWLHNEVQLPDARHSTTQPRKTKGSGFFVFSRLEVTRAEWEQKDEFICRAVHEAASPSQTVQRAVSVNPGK", "assay": "method not stated"}
{"binder": "B1", "values": [{"measurement": "Kd", "value": 2540, "unit": "nM"}]}
